Data: PMC2797393, “Structure of the hDmc1-ssDNA Filament Reveals the Principles of Its Architecture” (PLoS ONE, 2010)

Molecular target: the molecule itself
Assay: negative-stain electron microscopy with single-particle statistical analysis; hDmc1 10 uM without DNA, 25 mM Tris-acetate pH 7.0, 2 mM ATP, 100 mM NaCl, 1 mM DTT, 2 mM CaCl2, 37 C for 30 min then on ice; eigen images and class averages of ring particles

B1: Human Dmc1 (hDmc1) (natural protein)
chain: MKEDQVVAEEPGFQDEEESLFQDIDLLQKHGINVADIKKLKSVGICTIKGIQMTTRRALCNVKGLSEAKVDKIKEAANKLIEPGFLTAFEYSEKRKMVFHITTGSQEFDKLLGGGIESMAITEAFGEFRTGKTQLSHTLCVTAQLPGAGGYPGGKIIFIDTENTFRPDRLRDIADRFNVDHDAVLDNVLYARAYTSEHQMELLDYVAAKFHEEAGIFKLLIIDSIMALFRVDFSGRGELAERQQKLAQMLSRLQKISEEYNVAVFVTNQMTADPGATMTFQADPKKPIGGHILAHASTTRISLRKGRGELRIAKIYDSPEMPENEATFAITAGGIGDAKE
notes: human Dmc1, a protein of 340 amino acid residues: N-terminal domain 1-81 and core ATPase domain 82-340; Probably the whole 340-residue protein, since both domains (1-81 and 82-340) were docked into the maps; Octameric ring without DNA; helical filament of open length on DNA; also called human meiotic recombinase Dmc1; source: E. coli BLR(DE3), purified (ammonium sulfate precipitation, HisTrap HP, …)
- stoichiometry N: 8
